Laboratory results from paper PMC11417995 (2024).

Molecular target: ubiquitin (Homo sapiens, UniProt P0CG47)
Assay: PPI-CONA

B1: CDC34A (protein)
chain: MARPLVPSSQKALLLELKGLQEEPVEGFRVTLVDEGDLYNWEVAIFGPPNTYYEGGYFKARLKFPIDYPYSPPAFRFLTKMWHPNIYETGDVCISILHPPVDDPQSGELPSERWNPTQNVRTILLSVISLLNEPNTFSPANVDASVMYRKWKESKGKDREYTDIIRKQVLGTKVDAERDGVKVPTTLAEYCVKTKAPAPDEGSDLFYDDYYEDGEVEEEADSCFGDDEDDSGTEES
modifications: CC0651
**Q.** B1 was tested. Which Kd did it give?
**A.** 12.2 µM
